Patent US20250075006A1 (SHANDONG SIMCERE BIOPHARMACEUTICAL, published 2025)
Where two headings read alike, the source gives them in different places.

T1: Cyno GUCY2C ECD (his-tagged cynomolgus monkey GUCY2C protein extracellular domain fusion protein) (cynomolgus monkey, UniProt P25092 24-430 (human entry))
T1 construct: also called monkey GUCY2C-his; monkey GUCY2C-His
T1 chain: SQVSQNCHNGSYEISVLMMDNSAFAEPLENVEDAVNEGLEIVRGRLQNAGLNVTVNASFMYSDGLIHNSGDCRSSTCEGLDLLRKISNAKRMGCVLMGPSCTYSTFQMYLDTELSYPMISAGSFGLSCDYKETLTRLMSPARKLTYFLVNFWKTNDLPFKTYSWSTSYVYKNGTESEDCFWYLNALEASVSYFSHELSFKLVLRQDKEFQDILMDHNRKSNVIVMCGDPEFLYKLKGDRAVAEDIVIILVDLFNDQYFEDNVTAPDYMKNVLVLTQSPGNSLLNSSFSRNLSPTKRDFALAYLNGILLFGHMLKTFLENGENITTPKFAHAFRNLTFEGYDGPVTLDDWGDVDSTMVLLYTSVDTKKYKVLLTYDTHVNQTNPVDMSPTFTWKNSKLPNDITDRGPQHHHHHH

B1: PF1608-hIgG1 (antibody, V domains shown)
VH: EVQLVESGGGLVQPGGSLRLSCAASGFTFSSYWMHWVRQAPGKGLEWIGEIKPSNELTNVHEKFKDRFTISVDKAKNSAYLQMNSLRAEDTAVYYCTRTITTTEGYWFFDVWGQGTLVTVSS
VL: DIQLTQSPSSLSASVGDRVTITCRASESVDYYGSSLLQWYQQKPGKAPKLLIYAASKLASGVPSRFSGSGSGTDFTLTISSLQPEDFATYYCQQTRKAYTFGQGTKLEIKR
notes: also called PF1608-hlgG1; positive control antibody
B2: 5F9-hIgG1 (antibody, V domains shown)
VH: QVQLQQWGAGLLKPSETLSLTCAVFGGSFSGYYWSWIRQPPGKGLEWIGEINHRGNTNDNPSLKSRVTISVDTSKNQFALKLSSVTAADTAVYYCARERGYTYGNFDHWGQGTLVTVSS
VL: EIVMTQSPATLSVSPGERATLSCRASQSVSRNLAWYQQKPGQAPRLLIYGASTRATGIPARFSGSGSGTEFTLTIGSLQSEDFAVYYCQQYKTWPRTFGQGTNVEIKR
notes: also called positive control antibody

Experiments:
[1] = molecular target: T2, Human GUCY2C ECD (his-tagged human GUCY2C protein extracellular domain fusion protein) (human, UniProt P25092 24-430); assay: SPR Biacore, antibody on Protein A, antigen injected
T2 construct: also called human GUCY2C-his; human GUCY2C-His
Method: The strength of antibody-antigen binding was assayed with a BIAcore 8K instrument using a Protein A capture method. First, Protein A was immobilized onto a CM4 chip (purchased from GE, BR-1005-34) using an amino coupling method. According to the instruction of the Amine Coupling Kit (purchased from GE, BR100633), NHS and EDC were mixed with HBS-EP+pH 7.4 as a mobile phase to activate the chip for about 600 s; the Protein A was diluted to 50 μg/mL with 10 mM sodium acetate (pH 4.5) and injected for 600 s, and finally, the remaining activated sites were blocked with ethanolamine. Then, the affinity of the antibody for the antigen was assayed using a multi-cycle kinetic method; in each cycle, first, the antibody to be tested was captured using the Protein A chip, and then a single concentration of antigen protein was injected. The association and dissociation processes of the antibody with the antigen protein were recorded, and finally, the chip was regenerated using Glycine pH 1.5, wherein the mobile phase was HBS-EP+(10 mM HEPES, 150 mM NaCl, 3 mM EDTA, 0.05% surfactant P20), the flow rate was 30 μL/min, the regeneration time was 30 s, and the assay temperature was 25° C. Finally, according to a 1:1 binding model, the data were analyzed, and the antibody-antigen binding kinetics parameters, including the association rate constant Ka, the dissociation rate constant Kd, the equilibrium dissociation constant KD, and the maximum binding signal Rmax, were fitted.
The association rate (Ka), dissociation rate (Kd), and binding affinity (KD) of the recombinant antibodies Lab306-huFc, Lab322-huFc, and Lab323-huFc with the human GUCY2C protein are shown in Table 5. The positive control antibody has good binding activity at the protein level, but has very weak binding at the cellular level. Lab322-huFc and Lab323-huFc, although weak in affinity, bind well to the cellular level, presumably due to differences in the conformation of the proteins and proteins at the viable cellular level.

[2] = molecular target: T1, Cyno GUCY2C ECD (his-tagged cynomolgus …); assay: ELISA, plate coated with monkey GUCY2C-his, OD450
[3] = molecular target: T2, Human GUCY2C ECD (his-tagged human …); assay: BLI Gator, antibody on anti-human Fc probe, antigen in solution
Method: (§1) Next, we measured the affinity of the recombinant antibody by another method, and the specific procedures were as follows: the binding strength of the antibody to the antigen was assayed by acquiring and analyzing the signal change of the reflection interference spectrum on the surface of the optical probe by using thin film interference technology. First, the probe was equilibrated for 300 s with HBS-T+pH 7.4 (0.02% tween) as the mobile phase. 2 μg/mL of the antibody to be tested was captured by an anti-human FC probe (purchased from ProbeLife, PL168-160003) for 240 s, and then antigen proteins with the concentration of 200 nM and diluted two-fold were injected. Kon for 300 s and Koff for 600 s. The association and dissociation processes of the antibody with the antigen protein were recorded, and finally, the chip was regenerated using Glycine pH 2.0 (purchased from GE), wherein the mobile phase was HBS-T+pH 7.4 (0.02% tween), the regeneration time was 5 s, and the assay temperature was 30° C. Finally, according to a 1:1 binding model, the data were analyzed, and the antibody-antigen binding kinetics parameters, including the association rate constant Ka, the dissociation rate constant Kd, the equilibrium dissociation constant KD, and the maximum binding signal Rmax, were fitted. The association rate (Ka), dissociation rate (Kd), and binding affinity (KD) of the recombinant antibodies with the human GUCY2C and monkey GUCY2C proteins are shown in Table 6.

[4] = molecular target: T1, Cyno GUCY2C ECD (his-tagged cynomolgus …); assay: as above
Method: as §1

[5] = molecular target: T2, Human GUCY2C ECD (his-tagged human …); assay: as above; remark: listed apart in the source
Method: as §1
(§2) After the finally obtained various humanized antibodies were expressed and purified, the affinities of the humanized antibodies for the human and monkey GUCY2C proteins were separately assayed according to the method in Example 4.6.

[6] = molecular target: T1, Cyno GUCY2C ECD (his-tagged cynomolgus …); assay: as above
Method: as §1, §2

T2 sequence (P25092 other isoform, or with tags, fused parts or gaps): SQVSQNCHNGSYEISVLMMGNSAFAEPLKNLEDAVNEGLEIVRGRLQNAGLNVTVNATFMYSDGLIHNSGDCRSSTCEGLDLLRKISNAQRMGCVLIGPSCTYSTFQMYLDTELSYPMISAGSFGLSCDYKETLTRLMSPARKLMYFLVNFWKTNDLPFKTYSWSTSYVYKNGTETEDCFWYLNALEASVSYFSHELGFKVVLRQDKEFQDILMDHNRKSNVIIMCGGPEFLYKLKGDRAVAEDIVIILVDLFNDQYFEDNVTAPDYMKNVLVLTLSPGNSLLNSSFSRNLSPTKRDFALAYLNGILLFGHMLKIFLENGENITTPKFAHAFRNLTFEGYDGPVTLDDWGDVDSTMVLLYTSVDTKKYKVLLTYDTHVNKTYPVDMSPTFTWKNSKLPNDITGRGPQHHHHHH

Binder	Kd [1] [nM]	koff [1] [s⁻¹]	kon [1] [M⁻¹ s⁻¹]	EC50 (read off the curve) [2] [nM]	Kd [3] [nM]	koff [3] [s⁻¹]	kon [3] [M⁻¹ s⁻¹]	Kd [4] [nM]	koff [4] [s⁻¹]	kon [4] [M⁻¹ s⁻¹]	Kd [5] [nM]	koff [5] [s⁻¹]	kon [5] [M⁻¹ s⁻¹]	Kd [6] [nM]	koff [6] [s⁻¹]	kon [6] [M⁻¹ s⁻¹]
B1	1.61	0.000235	146000	~0.05	0.494	0.000197	400000	0.256	0.000138	540000	0.494	0.000197	400000	0.256	0.000138	540000
B2	2.19	0.00028	128000	~0.03	1.14	0.000448	391000	0.998	0.000486	487000	1.14	0.000448	391000	0.998	0.000486	487000
